These results are taken from the supplement of paper PMC5998384.

Data set [1] deals with HeLa Kyoto. Description: solubility in G1/S (NP-40 vs SDS abundance) (log2 ratio); higher = more soluble. As to conditions: cell cycle stage: G1/S.
Data set [2] deals with HeLa Kyoto. Description: melting temperature (median over replicates), in situ; higher = more thermally stable.
Data set [3] deals with HeLa Kyoto. Description: solubility change mitosis vs G1/S (difference of NP-40 vs SDS log2 ratios) (log2 ratio difference); higher = more soluble in mitosis.
Data set [4] concerns HeLa Kyoto. Description: thermal stability score vs G1/S (z-score of summed log2 fold changes over temperatures); higher = more thermally stable than in G1/S.
[5] abbreviates: cell cycle stage: early G1 (4.5 h after nocodazole release).
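Wherever melting temperature (median over replicates), in situ is given: HeLa Kyoto cells synchronized by double thymidine or nocodazole block, proteins quantified by TMT10plex mass spectrometry, three independent biological replicates.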
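Wherever solubility change mitosis vs G1/S (difference of NP-40 vs SDS log2 ratios) is given: synchronized HeLa Kyoto cells (double thymidine block for G1/S, nocodazole release for mitosis), protein amounts in NP-40 versus SDS lysates quantified by mass spectrometry, three biological replicates.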
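Wherever solubility in G1/S (NP-40 vs SDS abundance) is given: HeLa Kyoto cells arrested at G1/S by double thymidine block, proteins quantified by TMT10plex mass spectrometry in mild NP-40 versus SDS extracts, three biological replicates.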
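Wherever thermal stability score vs G1/S (z-score of summed log2 fold changes over temperatures) is given: synchronized HeLa Kyoto cells, proteins quantified by TMT10plex mass spectrometry, three biological replicates, mitosis taken 0.5 h after nocodazole release, G1/S directly after double thymidine block.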

Chain of RBPJ (chain, as listed by the source): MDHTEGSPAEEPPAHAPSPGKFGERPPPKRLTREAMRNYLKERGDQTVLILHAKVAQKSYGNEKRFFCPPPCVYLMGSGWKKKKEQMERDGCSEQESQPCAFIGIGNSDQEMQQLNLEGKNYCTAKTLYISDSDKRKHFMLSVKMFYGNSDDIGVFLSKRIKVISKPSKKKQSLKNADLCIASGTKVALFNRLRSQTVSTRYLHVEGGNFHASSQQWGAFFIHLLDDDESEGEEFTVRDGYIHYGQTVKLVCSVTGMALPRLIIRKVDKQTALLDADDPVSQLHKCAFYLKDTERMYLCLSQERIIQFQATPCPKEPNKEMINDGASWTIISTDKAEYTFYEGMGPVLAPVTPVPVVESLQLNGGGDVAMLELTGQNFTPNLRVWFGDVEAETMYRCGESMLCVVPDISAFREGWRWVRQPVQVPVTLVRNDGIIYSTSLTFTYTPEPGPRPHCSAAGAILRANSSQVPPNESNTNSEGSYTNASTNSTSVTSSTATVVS

Regarding “MDFTAQPKPATALCGVVSADGKIAYPPGVKEITDKITTDEMIKRLKMVVKTFMDMDQDSEDEKQQYLPLALHLASEFFLRNPNKDVRLLVACCLADIFRIYAPEAPYTSHDKLKDIFLFITRQLKGLEDTKSPQFNRYFYLLENLAWVKSYNICFELEDCNEIFIQLFRTLFSVINNSHNKKVQMHMLDLMSSIIMEGDGVTQELLDSILINLIPAHKNLNKQSFDLAKVLLKRTVQTIEACIANFFNQVLVLGRSSVSDLSEHVFDLIQELFAIDPHLLLSVMPQLEFKLKSNDGEERLAVVRLLAKLFGSKDSDLATQNRPLWQCFLGRFNDIHVPVRLESVKFASHCLMNHPDLAKDLTEYLKVRSHDPEEAIRHDVIVTIITAAKRDLALVNDQLLGFVRERTLDKRWRVRKEAMMGLAQLYKKYCLHGEAGKEAAEKVSWIKDKLLHIYYQNSIDDKLLVEKIFAQYLVPHNLETEERMKCLYYLYASLDPNAVKALNEMWKCQNMLRSHVRELLDLHKQPTSEANCSAMFGKLMTIAKNLPDPGKAQDFVKKFNQVLGDDEKLRSQLELLISPTCSCKQADICVREIARKLANPKQPTNPFLEMVKFLLERIAPVHIDSEAISALVKLMNKSIEGTADDEEEGVSPDTAIRSGLELLKVLSFTHPTSFHSAETYESLLQCLRMEDDKVAEAAIQIFRNTGHKIETDLPQIRSTLIPILHQKAKRGTPHQAKQAVHCIHAIFTNKEVQLAQIFEPLSRSLNADVPEQLITPLVSLGHISMLAPDQFASPMKSVVANFIVKDLLMNDRSTGEKNGKLWSPDEEVSPEVLAKVQAIKLLVRWLLGMKNNQSKSANSTLRLLSAMLVSEGDLTEQKRISKSDMSRLRLAAGSAIMKLAQEPCYHEIITPEQFQLCALVINDECYQVRQIFAQKLHKALVKLLLPLEYMAIFALCAKDPVKERRAHARQCLLKNISIRREYIKQNPMATEKLLSLLPEYVVPYMIHLLAHDPDFTRSQDVDQLRDIKECLWFMLEVLMTKNENNSHAFMKKMAENIKLTRDAQSPDESKTNEKLYTVCDVALCVINSKSALCNADSPKDPVLPMKFFTQPEKDFCNDKSYISEETRVLLLTGKPKPAGVLGAVNKPLSATGRKPYVRSTGTETGSNINVNSELNPSTGNRSREQSSEAAETGVSENEENPVRIISVTPVKNIDPVKNKEINSDQATQGNISSDRGKKRTVTAAGAENIQQKTDEKVDESGPPAPSKPRRGRRPKSESQGNATKNDDLNKPINKGRKRAAVGQESPGGLEAGNAKAPKLQDLAKKAAPAERQIDLQR [PDS5A]”, the “solubility in G1/S (log2)” value in the data set with HeLa Kyoto [1] is -0.0007. Besides, the melting temperature in the data set with HeLa Kyoto [2] (cell cycle stage: G1/S) is 47.2 °C; in the data set with HeLa Kyoto [2] (cell cycle stage: mitosis), 48.7 °C. Also, in the data set with HeLa Kyoto [3], the “solubility change mitosis (log2)” value was -0.126. The thermal stability score was 5.43 in the data set on HeLa Kyoto [4] (setting [5]) and 11.2 in the data set with HeLa Kyoto [4] (cell cycle stage: mitosis).
Take “MSGESARSLGKGSAPPGPVPEGSIRIYSMRFCPFAERTRLVLKAKGIRHEVININLKNKPEWFFKKNPFGLVPVLENSQGQLIYESAITCEYLDEAYPGKKLLPDDPYEKACQKMILELFSKVPSLVGSFIRSQNKEDYAGLKEEFRKEFTKLEEVLTNKKTTFFGGNSISMIDYLIWPWFERLEAMKLNECVDHTPKLKLWMAAMKEDPTVSALLTSEKDWQGFLELYLQNSPEACDYGL [GSTO1]”: the “solubility in G1/S (log2)” value in the data set on HeLa Kyoto [1] stood at 0.508. Further, the melting temperature was determined as 53.7 °C with HeLa Kyoto [2] (cell cycle stage: G1/S) and 54.2 °C in the data set on HeLa Kyoto [2] (cell cycle stage: mitosis). Also, in the data set with HeLa Kyoto [3], the “solubility change mitosis (log2)” value was -0.0339. Moreover, the thermal stability score in the data set with HeLa Kyoto [4] (setting [5]) was 1.3; with HeLa Kyoto [4] (cell cycle stage: mitosis), -0.166.
Turning to “MAAPPEPGEPEERKSLKLLGFLDVENTPCARHSILYGSLGSVVAGFGHFLFTSRIRRSCDVGVGGFILVTLGCWFHCRYNYAKQRIQERIAREEIKKKILYEGTHLDPERKHNGSSSN [COX20]”, the “solubility in G1/S (log2)” value in the data set on HeLa Kyoto [1] was found to be 0.0379. Also, the values for the melting temperature with HeLa Kyoto [2] (cell cycle stage: G1/S) and in the data set on HeLa Kyoto [2] (cell cycle stage: mitosis) were 55.3 °C and 58 °C, respectively. Also, the “solubility change mitosis (log2)” value in the data set with HeLa Kyoto [3] was -0.0179. Besides, the thermal stability score in the data set on HeLa Kyoto [4] (setting [5]) is -0.338; with HeLa Kyoto [4] (cell cycle stage: mitosis), -1.53.
Take RBPJ: the “solubility in G1/S (log2)” value in the data set with HeLa Kyoto [1] is -0.198. Besides, the melting temperature in the data set on HeLa Kyoto [2] (cell cycle stage: G1/S) stood at 54.8 °C; in the data set on HeLa Kyoto [2] (cell cycle stage: mitosis), 54.4 °C. Besides, in the data set on HeLa Kyoto [3], the “solubility change mitosis (log2)” value amounted to 0.039. For the same substance, the thermal stability score in the data set with HeLa Kyoto [4] (setting [5]) is 0.21; with HeLa Kyoto [4] (cell cycle stage: mitosis), -0.976.
Take “MVKLFIGNLPREATEQEIRSLFEQYGKVLECDIIKNYGFVHIEDKTAAEDAIRNLHHYKLHGVNINVEASKNKSKTSTKLHVGNISPTCTNKELRAKFEEYGPVIECDIVKDYAFVHMERAEDAVEAIRGLDNTEFQGKRMHVQLSTSRLRTAPGMGDQSGCYRCGKEGHWSKECPIDRSGRVADLTEQYNEQYGAVRTPYTMSYGDSLYYNNAYGALDAYYKRCRAARSYEAVAAAAASVYNYAEQTLSQLPQVQNTAMASHLTSTSLDPYDRHLLPTSGAAATAAAAAAAAAAVTAASTSYYGRDRSPLRRATAPVPTVGEGYGYGHESELSQASAAARNSLYDMARYEREQYADRARYSAF [RBM4]”: in the data set with HeLa Kyoto [1], the “solubility in G1/S (log2)” value is 0.281. In addition, the melting temperature came out at 49.6 °C with HeLa Kyoto [2] (cell cycle stage: G1/S) and 48 °C in the data set on HeLa Kyoto [2] (cell cycle stage: mitosis). Further, the “solubility change mitosis (log2)” value with HeLa Kyoto [3] was -0.0121. The thermal stability score in the data set with HeLa Kyoto [4] (setting [5]) was -0.245; in the data set on HeLa Kyoto [4] (cell cycle stage: mitosis) it was -0.114.
As to “MDLMNGQASSVNIAATASEKSSSSESLSDKGSELKKSFDAVVFDVLKVTPEEYAGQITLMDVPVFKAIQPDELSSCGWNKKEKYSSAPNAVAFTRRFNHVSFWVVREILHAQTLKIRAEVLSHYIKTAKKLYELNNLHALMAVVSGLQSAPIFRLTKTWALLSRKDKTTFEKLEYVMSKEDNYKRLRDYISSLKMTPCIPYLGIYLSDLTYIDSAYPSTGSILENEQRSNLMNNILRIISDLQQSCEYDIPMLPHVQKYLNSVQYIEELQKFVEDDNYKLSLKIEPGTSTPRSAASREDLVGPEVGASPQSGRKSVAAEGALLPQTPPSPRNLIPHGHRKCHSLGYNFIHKMNTAEFKSATFPNAGPRHLLDDSVMEPHAPSRGQAESSTLSSGISIGSSDGSELSEETSWPAFERNRLYHSLGPVTRVARNGYRSHMKASSSAESEDLAVHLYPGAVTIQGVLRRKTLLKEGKKPTVASWTKYWAALCGTQLFYYAAKSLKATERKHFKSTSNKNVSVIGWMVMMADDPEHPDLFLLTDSEKGNSYKFQAGNRMNAMLWFKHLSAACQSNKQQVPTNLMTFE [RALGPS2]”, the “solubility in G1/S (log2)” value in the data set with HeLa Kyoto [1] is 0.0658. The melting temperature was 51 °C in the data set on HeLa Kyoto [2] (cell cycle stage: G1/S) and 50.5 °C in the data set with HeLa Kyoto [2] (cell cycle stage: mitosis). In addition, the “solubility change mitosis (log2)” value in the data set on HeLa Kyoto [3] was -0.165. For the same substance, the thermal stability score in the data set with HeLa Kyoto [4] (setting [5]) is -0.455; with HeLa Kyoto [4] (cell cycle stage: mitosis), -0.819.
Regarding “MNGTLDHPDQPDLDAIKMFVGQVPRTWSEKDLRELFEQYGAVYEINVLRDRSQNPPQSKGCCFVTFYTRKAALEAQNALHNMKVLPGMHHPIQMKPADSEKNNAVEDRKLFIGMISKKCTENDIRVMFSSFGQIEECRILRGPDGLSRGCAFVTFTTRAMAQTAIKAMHQAQTMEGCSSPMVVKFADTQKDKEQKRMAQQLQQQMQQISAASVWGNLAGLNTLGPQYLALYLQLLQQTASSGNLNTLSSLHPMGGLNAMQLQNLAALAAAASAAQNTPSGTNALTTSSSPLSVLTSSGSSPSSSSSNSVNPIASLGALQTLAGATAGLNVGSLAGMAALNGGLGSSGLSNGTGSTMEALTQAYSGIQQYAAAALPTLYNQNLLTQQSIGAAGSQKEGPEGANLFIYHLPQEFGDQDLLQMFMPFGNVVSAKVFIDKQTNLSKCFGFVSYDNPVSAQAAIQSMNGFQIGMKRLKVQLKRSKNDSKPY [CELF1]”, in the data set on HeLa Kyoto [1], the “solubility in G1/S (log2)” value worked out at 0.269. The melting temperature is 47.5 °C with HeLa Kyoto [2] (cell cycle stage: G1/S) and 48.1 °C with HeLa Kyoto [2] (cell cycle stage: mitosis). Further, the “solubility change mitosis (log2)” value with HeLa Kyoto [3] is -0.0537. In addition, the results for the thermal stability score in the data set with HeLa Kyoto [4] (setting [5]) and with HeLa Kyoto [4] (cell cycle stage: mitosis) were 1.56 and 2.85, respectively.
Turning to “MKALDEPPYLTVGTDVSAKYRGAFCEAKIKTAKRLVKVKVTFRHDSSTVEVQDDHIKGPLKVGAIVEVKNLDGAYQEAVINKLTDASWYTVVFDDGDEKTLRRSSLCLKGERHFAESETLDQLPLTNPEHFGTPVIGKKTNRGRRSNHIPEEESSSSSSDEDEDDRKQIDELLGKVVCVDYISLDKKKALWFPALVVCPDCSDEIAVKKDNILVRSFKDGKFTSVPRKDVHEITSDTAPKPDAVLKQAFEQALEFHKSRTIPANWKTELKEDSSSSEAEEEEEEEDDEKEKEDNSSEEEEEIEPFPEERENFLQQLYKFMEDRGTPINKRPVLGYRNLNLFKLFRLVHKLGGFDNIESGAVWKQVYQDLGIPVLNSAAGYNVKCAYKKYLYGFEEYCRSANIEFQMALPEKVVNKQCKECENVKEIKVKEENETEIKEIKMEEERNIIPREEKPIEDEIERKENIKPSLGSKKNLLESIPTHSDQEKEVNIKKPEDNENLDDKDDDTTRVDESLNIKVEAEEEKAKSGDETNKEEDEDDEEAEEEEEEEEEEEDEDDDDNNEEEEFECYPPGMKVQVRYGRGKNQKMYEASIKDSDVEGGEVLYLVHYCGWNVRYDEWIKADKIVRPADKNVPKIKHRKKIKNKLDKEKDKDEKYSPKNCKLRRLSKPPFQTNPSPEMVSKLDLTDAKNSDTAHIKSIEITSILNGLQASESSAEDSEQEDERGAQDMDNNGKEESKIDHLTNNRNDLISKEEQNSSSLLEENKVHADLVISKPVSKSPERLRKDIEVLSEDTDYEEDEVTKKRKDVKKDTTDKSSKPQIKRGKRRYCNTEECLKTGSPGKKEEKAKNKESLCMENSSNSSSDEDEEETKAKMTPTKKYNGLEEKRKSLRTTGFYSGFSEVAEKRIKLLNNSDERLQNSRAKDRKDVWSSIQGQWPKKTLKELFSDSDTEAAASPPHPAPEEGVAEESLQTVAEEESCSPSVELEKPPPVNVDSKPIEEKTVEVNDRKAEFPSSGSNSVLNTPPTTPESPSSVTVTEGSRQQSSVTVSEPLAPNQEEVRSIKSETDSTIEVDSVAGELQDLQSEGNSSPAGFDASVSSSSSNQPEPEHPEKACTGQKRVKDAQGGGSSSKKQKRSHKATVVNNKKKGKGTNSSDSEELSAGESITKSQPVKSVSTGMKSHSTKSPARTQSPGKCGKNGDKDPDLKEPSNRLPKVYKWSFQMSDLENMTSAERITILQEKLQEIRKHYLSLKSEVASIDRRRKRLKKKERESAATSSSSSSPSSSSITAAVMLTLAEPSMSSASQNGMSVECR [ARID4B]”, the “solubility in G1/S (log2)” value in the data set on HeLa Kyoto [1] was -0.276. For the same substance, the melting temperature was determined as 48.4 °C with HeLa Kyoto [2] (cell cycle stage: G1/S) and 49.6 °C with HeLa Kyoto [2] (cell cycle stage: mitosis). Besides, in the data set on HeLa Kyoto [3], the “solubility change mitosis (log2)” value stood at 0.0721. For the same substance, the thermal stability score was 0.255 in the data set on HeLa Kyoto [4] (setting [5]) and 0.983 in the data set on HeLa Kyoto [4] (cell cycle stage: mitosis).
